Measured values reported in paper PMC4703863.

Experiments:
His6-T7 RNA polymerase [1] = molecular target: T1, His6-T7 RNA polymerase (bacteriophage T7, UniProt P00573 1-883); assay: smFRET; no NTPs; Transcription-scanning buffer: 40 mM Tris-HCl pH 7.9, 5 mM Mg2+, 60 mM Na+, 0.2 mg/ml BSA, 2 mM Trolox, PCA/PCD; 0.5-5 nM RNAP, 20 nM AID; temperature and ssDNA
His6-T7 RNA polymerase [2] = molecular target: T1, His6-T7 RNA polymerase; assay: smFRET; no NTPs; ~0.85 FRET; Transcription-scanning buffer: 40 mM Tris-HCl pH 7.9, 5 mM Mg2+, 60 mM Na+, 0.2 mg/ml BSA, 2 mM Trolox, PCA/PCD; 0.5-5 nM RNAP, 20 nM AID; temperature and ssDNA
His6-T7 RNA polymerase [3] = molecular target: T1, His6-T7 RNA polymerase; assay: smFRET; no NTPs; ~0.95 FRET; Transcription-scanning buffer: 40 mM Tris-HCl pH 7.9, 5 mM Mg2+, 60 mM Na+, 0.2 mg/ml BSA, 2 mM Trolox, PCA/PCD; 0.5-5 nM RNAP, 20 nM AID; temperature and ssDNA
His6-T7 RNA polymerase [4] = molecular target: T1, His6-T7 RNA polymerase; assay: smFRET; no NTPs; ~0.4 FRET; Transcription-scanning buffer: 40 mM Tris-HCl pH 7.9, 5 mM Mg2+, 60 mM Na+, 0.2 mg/ml BSA, 2 mM Trolox, PCA/PCD; 0.5-5 nM RNAP, 20 nM AID; temperature and ssDNA
His6-T7 RNA polymerase [5] = molecular target: T1, His6-T7 RNA polymerase; assay: smFRET; no NTPs; ~0.2 FRET; Transcription-scanning buffer: 40 mM Tris-HCl pH 7.9, 5 mM Mg2+, 60 mM Na+, 0.2 mg/ml BSA, 2 mM Trolox, PCA/PCD; 0.5-5 nM RNAP, 20 nM AID; temperature and ssDNA

T1 sequence (P00573 whole entry): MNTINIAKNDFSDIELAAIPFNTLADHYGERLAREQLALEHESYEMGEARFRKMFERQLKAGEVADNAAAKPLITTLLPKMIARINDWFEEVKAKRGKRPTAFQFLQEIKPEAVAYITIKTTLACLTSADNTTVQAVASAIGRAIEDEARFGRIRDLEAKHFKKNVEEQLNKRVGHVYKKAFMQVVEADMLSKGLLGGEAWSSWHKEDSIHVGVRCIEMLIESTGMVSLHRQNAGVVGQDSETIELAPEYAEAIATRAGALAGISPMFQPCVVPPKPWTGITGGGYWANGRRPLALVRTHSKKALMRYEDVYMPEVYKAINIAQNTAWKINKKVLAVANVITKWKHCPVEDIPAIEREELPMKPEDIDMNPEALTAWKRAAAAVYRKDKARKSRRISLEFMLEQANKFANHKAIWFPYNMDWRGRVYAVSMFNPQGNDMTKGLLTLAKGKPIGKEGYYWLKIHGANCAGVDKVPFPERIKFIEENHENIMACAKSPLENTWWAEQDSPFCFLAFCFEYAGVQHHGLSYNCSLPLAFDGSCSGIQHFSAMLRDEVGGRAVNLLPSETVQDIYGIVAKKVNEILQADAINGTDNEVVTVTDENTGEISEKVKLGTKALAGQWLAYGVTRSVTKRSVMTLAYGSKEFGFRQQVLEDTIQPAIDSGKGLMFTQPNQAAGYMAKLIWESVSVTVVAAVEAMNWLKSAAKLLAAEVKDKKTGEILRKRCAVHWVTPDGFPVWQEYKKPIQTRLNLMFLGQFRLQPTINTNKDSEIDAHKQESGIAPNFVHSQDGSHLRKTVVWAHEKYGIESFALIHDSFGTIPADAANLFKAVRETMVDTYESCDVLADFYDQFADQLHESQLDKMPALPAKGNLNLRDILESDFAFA

B1: No-promoter dsDNA 66-mer (dsDNA)
DNA 1: CAGAGATGCAGCCGTCCGTATCCGTATTGTAGAAAAGGGGAAAGCAAAGAGGAAAGGTGAGGAGGT
DNA 2: ACCTCCTCACCTTTCCTCTTTGCTTTCCCCTTTTCTACAATACGGATACGGACGGCTGCATCTCTG
- binding result (His6-T7 RNA polymerase [1]): no binding

B2: T7 promoter dsDNA shifted 20 bp downstream (19 bp from Cy3 end) (dsDNA)
DNA 1: TTTAAGAGGAAAGGTGAGGAGGTCAGAGATGCATAATACGACTCACTATAGGGAGAAAAGGGGAAAGCA
DNA 2: TGCTTTCCCCTTTTCTCCCTATAGTGAGTCGTATTATGCATCTCTGACCTCCTCACCTTTCCTCTT
- binding result (His6-T7 RNA polymerase [2]): binds

B3: T7 promoter dsDNA shifted 30 bp downstream (9 bp from Cy3 end) (dsDNA)
DNA 1: TTTGGGGAAAGCAAAGAGGAAAGGTGAGGAGGTCAGAGATGCATAATACGACTCACTATAGGGAGAAAA
DNA 2: TTTTCTCCCTATAGTGAGTCGTATTATGCATCTCTGACCTCCTCACCTTTCCTCTTTGCTTTCCCC
- binding result (His6-T7 RNA polymerase [3]): binds

B4: T7 promoter dsDNA shifted 10 bp downstream (29 bp from Cy3 end) (dsDNA)
DNA 1: TTTGTGAGGAGGTCAGAGATGCATAATACGACTCACTATAGGGAGAAAAGGGGAAAGCAAAGAGGAAAG
DNA 2: CTTTCCTCTTTGCTTTCCCCTTTTCTCCCTATAGTGAGTCGTATTATGCATCTCTGACCTCCTCAC
- binding result (His6-T7 RNA polymerase [4]): binds

B5: 69/66-mer T7 promoter dsDNA (promoter 39 bp from Cy3 end) (dsDNA)
DNA 1: TTTCAGAGATGCATAATACGACTCACTATAGGGAGAAAAGGGGAAAGCAAAGAGGAAAGGTGAGGAGGT
DNA 2: ACCTCCTCACCTTTCCTCTTTGCTTTCCCCTTTTCTCCCTATAGTGAGTCGTATTATGCATCTCTG
- binding result (His6-T7 RNA polymerase [5]): binds
